Laboratory results from patent US20180155406A1 (Sanofi, published 2018).
Numbered stars: 1 amine (or outer) side, 2 acyl side, 3 side chain; on linkers, the order of the positions; unused ones are H or OH. Square brackets hold non-standard residues; d marks the D form. Side chains are listed from the residue outwards. Ends that are not written are not given here. * marks the point of attachment. γGlu = O=C(O)[C@H](CCC(=O)[*:2])N[*:1]; Stearoyl = CCCCCCCCCCCCCCCCCC(=O)*; Palmitoyl = CCCCCCCCCCCCCCCC(=O)*; gAAA = not defined here; AEEA = NCCOCCOCC(=O)O; Aib = CC(C)(N)C(=O)O

Legend:
Assay in all cases: cell-based or functional assay
[1] = molecular target: human GLP-1 receptor (human) (UniProt P43220)
Sequence of human GLP-1 receptor (human) (P43220 24-463): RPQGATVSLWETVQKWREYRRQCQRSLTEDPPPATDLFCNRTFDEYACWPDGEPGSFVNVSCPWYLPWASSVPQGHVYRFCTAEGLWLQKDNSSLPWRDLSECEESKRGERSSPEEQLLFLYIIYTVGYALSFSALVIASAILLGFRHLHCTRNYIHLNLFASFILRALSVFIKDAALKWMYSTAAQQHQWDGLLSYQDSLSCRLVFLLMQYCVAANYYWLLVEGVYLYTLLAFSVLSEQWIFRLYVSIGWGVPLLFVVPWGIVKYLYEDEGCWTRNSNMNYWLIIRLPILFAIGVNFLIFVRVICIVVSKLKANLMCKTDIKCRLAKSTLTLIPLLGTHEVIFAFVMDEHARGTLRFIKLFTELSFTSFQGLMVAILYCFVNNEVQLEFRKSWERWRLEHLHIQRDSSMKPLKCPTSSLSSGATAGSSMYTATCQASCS

[2] = molecular target: human glucagon receptor (human) (UniProt P47871)
Sequence of human glucagon receptor (human) (P47871 26-477): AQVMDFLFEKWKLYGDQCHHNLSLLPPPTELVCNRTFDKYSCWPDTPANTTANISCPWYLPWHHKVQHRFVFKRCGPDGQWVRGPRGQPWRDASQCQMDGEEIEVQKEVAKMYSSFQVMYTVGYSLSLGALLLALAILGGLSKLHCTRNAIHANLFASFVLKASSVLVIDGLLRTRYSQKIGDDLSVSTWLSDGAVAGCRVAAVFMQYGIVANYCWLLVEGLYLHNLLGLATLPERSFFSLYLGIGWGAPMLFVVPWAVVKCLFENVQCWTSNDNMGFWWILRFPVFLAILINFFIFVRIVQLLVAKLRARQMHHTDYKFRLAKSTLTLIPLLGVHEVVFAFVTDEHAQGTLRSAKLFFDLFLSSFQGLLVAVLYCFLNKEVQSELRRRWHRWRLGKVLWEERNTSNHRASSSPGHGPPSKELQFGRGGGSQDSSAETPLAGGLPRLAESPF

human GLP-1 receptor = human GLP-1 receptor (human, UniProt P43220 24-463)
human glucagon receptor [3] = molecular target: T1, human glucagon receptor (human, UniProt P47871 26-477)
T1 sequence (P47871 26-477): as above

human GIP receptor = molecular target: T2, human GIP receptor (human, UniProt P48546 22-466)
T2 sequence (looked up): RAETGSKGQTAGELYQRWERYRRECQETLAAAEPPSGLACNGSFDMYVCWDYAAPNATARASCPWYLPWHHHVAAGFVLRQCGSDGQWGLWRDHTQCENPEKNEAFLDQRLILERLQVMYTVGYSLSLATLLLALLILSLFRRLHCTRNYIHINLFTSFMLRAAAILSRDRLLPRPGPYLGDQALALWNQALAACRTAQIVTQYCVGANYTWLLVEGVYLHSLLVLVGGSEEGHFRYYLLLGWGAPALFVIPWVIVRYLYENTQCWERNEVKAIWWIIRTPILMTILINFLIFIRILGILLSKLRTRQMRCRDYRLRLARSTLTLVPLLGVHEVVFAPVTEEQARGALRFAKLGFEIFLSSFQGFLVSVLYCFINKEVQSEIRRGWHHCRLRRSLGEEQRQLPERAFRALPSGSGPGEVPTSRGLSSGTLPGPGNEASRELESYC

human glucagon receptor [4] = molecular target: T1, human glucagon receptor; remark: listed apart in the source

exendin-4 (peptide)
EC50 hGLP-1 R [pM] (cAMP formation) [1]: 0.4 pM | EC50 hGlucagon R [pM] (cAMP formation) [2]: > 1e+07 pM

H[Aib]HGTFTSDLSKLK([γGlu-AEEA-gAAA-Palmitoyl])EEQRQKEFIEWLKAGGHPS[Aib]KPPPK-NH2 (reading uncertain) [SEQ ID NO: 22]
EC50 hGLP-1R (cAMP formation) (human GLP-1 receptor): 1 pM | EC50 hGlucagon R (cAMP formation) (human glucagon receptor [3]): 5.9 pM | EC50 hGIP R (cAMP formation) (human GIP receptor): 1.1 pM

H[Aib]HGTFTSDLSKLK([γGlu-AEEA-gAAA-Palmitoyl])EEQRQKEFIEWLKA[dA]GHPS[Aib]KPPPK-NH2 (reading uncertain) [SEQ ID NO: 23]
EC50 hGLP-1R (cAMP formation) (human GLP-1 receptor): 1.4 pM | EC50 hGlucagon R (cAMP formation) (human glucagon receptor [3]): 6.8 pM | EC50 hGIP R (cAMP formation) (human GIP receptor): 1.5 pM

B1: SEQ ID NO: 6 (peptide)
peptide: H[Aib]HGTFTSDLSKLK([γGlu-γGlu-Palmitoyl])EEQRQKEFIEWLKAGGHPS[Aib]KPPPK-NH2
modifications: N-terminus assumed
SMILES: CCCCCCCCCCCCCCCC(=O)N[C@@H](CCC(=O)N[C@@H](CCC(=O)NCCCC[C@H](NC(=O)[C@H](CC(C)C)NC(=O)[C@H](CCCCN)NC(=O)[C@H](CO)NC(=O)[C@H](CC(C)C)NC(=O)[C@H](CC(=O)O)NC(=O)[C@H](CO)NC(=O)[C@@H](NC(=O)[C@H](Cc1ccccc1)NC(=O)[C@@H](NC(=O)CNC(=O)[C@H](Cc1c[nH]cn1)NC(=O)C(C)(C)NC(=O)[C@@H](N)Cc1c[nH]cn1)[C@@H](C)O)[C@@H](C)O)C(=O)N[C@@H](CCC(=O)O)C(=O)N[C@@H](CCC(=O)O)C(=O)N[C@@H](CCC(N)=O)C(=O)N[C@@H](CCCNC(=N)N)C(=O)N[C@@H](CCC(N)=O)C(=O)N[C@@H](CCCCN)C(=O)N[C@@H](CCC(=O)O)C(=O)N[C@@H](Cc1ccccc1)C(=O)N[C@H](C(=O)N[C@@H](CCC(=O)O)C(=O)N[C@@H](Cc1c[nH]c2ccccc12)C(=O)N[C@@H](CC(C)C)C(=O)N[C@@H](CCCCN)C(=O)N[C@@H](C)C(=O)NCC(=O)NCC(=O)N[C@@H](Cc1c[nH]cn1)C(=O)N1CCC[C@H]1C(=O)N[C@@H](CO)C(=O)NC(C)(C)C(=O)N[C@@H](CCCCN)C(=O)N1CCC[C@H]1C(=O)N1CCC[C@H]1C(=O)N1CCC[C@H]1C(=O)N[C@@H](CCCCN)C(N)=O)[C@@H](C)CC)C(=O)O)C(=O)O
EC50 hGLP-1R (cAMP formation) (human GLP-1 receptor): 1.4 pM | EC50 hGlucagon R (cAMP formation) (human glucagon receptor [3]): 2.3 pM | EC50 hGIP R (cAMP formation) (human GIP receptor): 2.1 pM

HXQGTFTSDLSKQKDEQRAKEFIEWLKAGGPSSGAPPPS (Aib at 2; Lys14 side chain acylated with gGlu-Stea; C-terminal amide) [SEQ ID NO: 28]
EC50 hGlucagon-R (human glucagon receptor [4]): 1.9 pM

B2: SEQ ID NO: 21 (peptide)
peptide: H[Aib]HGTFTSDLSKLK([γGlu-Stearoyl])EEQRQKEFIEWLKAGGPPS[Aib]KPPPK-NH2
modifications: N-terminus assumed
SMILES: CCCCCCCCCCCCCCCCCC(=O)N[C@@H](CCC(=O)NCCCC[C@H](NC(=O)[C@H](CC(C)C)NC(=O)[C@H](CCCCN)NC(=O)[C@H](CO)NC(=O)[C@H](CC(C)C)NC(=O)[C@H](CC(=O)O)NC(=O)[C@H](CO)NC(=O)[C@@H](NC(=O)[C@H](Cc1ccccc1)NC(=O)[C@@H](NC(=O)CNC(=O)[C@H](Cc1c[nH]cn1)NC(=O)C(C)(C)NC(=O)[C@@H](N)Cc1c[nH]cn1)[C@@H](C)O)[C@@H](C)O)C(=O)N[C@@H](CCC(=O)O)C(=O)N[C@@H](CCC(=O)O)C(=O)N[C@@H](CCC(N)=O)C(=O)N[C@@H](CCCNC(=N)N)C(=O)N[C@@H](CCC(N)=O)C(=O)N[C@@H](CCCCN)C(=O)N[C@@H](CCC(=O)O)C(=O)N[C@@H](Cc1ccccc1)C(=O)N[C@H](C(=O)N[C@@H](CCC(=O)O)C(=O)N[C@@H](Cc1c[nH]c2ccccc12)C(=O)N[C@@H](CC(C)C)C(=O)N[C@@H](CCCCN)C(=O)N[C@@H](C)C(=O)NCC(=O)NCC(=O)N1CCC[C@H]1C(=O)N1CCC[C@H]1C(=O)N[C@@H](CO)C(=O)NC(C)(C)C(=O)N[C@@H](CCCCN)C(=O)N1CCC[C@H]1C(=O)N1CCC[C@H]1C(=O)N1CCC[C@H]1C(=O)N[C@@H](CCCCN)C(N)=O)[C@@H](C)CC)C(=O)O
EC50 hGLP-1R (cAMP formation) (human GLP-1 receptor): 3.4 pM | EC50 hGlucagon R (cAMP formation) (human glucagon receptor [3]): 1.9 pM | EC50 hGIP R (cAMP formation) (human GIP receptor): 2.6 pM

B3: SEQ ID NO: 20 (peptide)
peptide: H[Aib]HGTFTSDLSKLK([γGlu-Palmitoyl])EEQRQKEFIEWLKAGGPPS[Aib]KPPPK-NH2
modifications: N-terminus assumed
SMILES: CCCCCCCCCCCCCCCC(=O)N[C@@H](CCC(=O)NCCCC[C@H](NC(=O)[C@H](CC(C)C)NC(=O)[C@H](CCCCN)NC(=O)[C@H](CO)NC(=O)[C@H](CC(C)C)NC(=O)[C@H](CC(=O)O)NC(=O)[C@H](CO)NC(=O)[C@@H](NC(=O)[C@H](Cc1ccccc1)NC(=O)[C@@H](NC(=O)CNC(=O)[C@H](Cc1c[nH]cn1)NC(=O)C(C)(C)NC(=O)[C@@H](N)Cc1c[nH]cn1)[C@@H](C)O)[C@@H](C)O)C(=O)N[C@@H](CCC(=O)O)C(=O)N[C@@H](CCC(=O)O)C(=O)N[C@@H](CCC(N)=O)C(=O)N[C@@H](CCCNC(=N)N)C(=O)N[C@@H](CCC(N)=O)C(=O)N[C@@H](CCCCN)C(=O)N[C@@H](CCC(=O)O)C(=O)N[C@@H](Cc1ccccc1)C(=O)N[C@H](C(=O)N[C@@H](CCC(=O)O)C(=O)N[C@@H](Cc1c[nH]c2ccccc12)C(=O)N[C@@H](CC(C)C)C(=O)N[C@@H](CCCCN)C(=O)N[C@@H](C)C(=O)NCC(=O)NCC(=O)N1CCC[C@H]1C(=O)N1CCC[C@H]1C(=O)N[C@@H](CO)C(=O)NC(C)(C)C(=O)N[C@@H](CCCCN)C(=O)N1CCC[C@H]1C(=O)N1CCC[C@H]1C(=O)N1CCC[C@H]1C(=O)N[C@@H](CCCCN)C(N)=O)[C@@H](C)CC)C(=O)O
EC50 hGLP-1R (cAMP formation) (human GLP-1 receptor): 4.8 pM | EC50 hGlucagon R (cAMP formation) (human glucagon receptor [3]): 4.2 pM | EC50 hGIP R (cAMP formation) (human GIP receptor): 1.9 pM
